Assay [1] deals with human brain endothelial cells (HBEC). The experiment in a line: Capillary-like tube (CLT) formation in Matrigel. The assay is classed as cell-based. Particulars: for effect on IGF-1-induced CLT formation: IGF-1 150 ng/ml; for effect on IGF-1-induced CLT formation / effect on P1GF-induced CLT formation / effect on VEGF165-induced CLT formation / effect on bFGF-induced CLT formation: protein 500 ng/ml; for effect on P1GF-induced CLT formation: P1GF 100 ng/ml; for effect on VEGF165-induced CLT formation: VEGF165 20 ng/ml; for effect on bFGF-induced CLT formation: bFGF 20 ng/ml. The text has this:
Angiogenesis is the formation of new blood vessels from pre-existing capillaries. There are different methods to evaluate angiogenesis in vitro and in vivo. The method used in our studies consists in seeding human brain microvascular endothelial cells on Matrigel, which is an active matrix material resembling the mammalian cellular basement membrane. Endothelial cells seeded on Matrigel behave as they do in vivo and when submitted to an angiogenic stimuli reorganize forming a complex network of capillary-like tubes. The total length of the capillary-like tube network as well as the number of branching point (nodes) formed by the endothelial cells directly correlate with the potency of the angiogenic stimuli.
In vitro angiogenesis was assessed by endothelial tube formation in growth factor reduced Matrigel™ (BD Bioscience, Bedford, Mass.). 24-well plates were coated with 300 μl of unpolymerized Matrigel™ (5-7 mg prot/ml) and allowed to polymerize for 90 min at 37° C. […] In a set of experiments, 500 ng/ml of either full length recombinant IGFBP-4, NBP-4 or CBP-4 were co-applied with growth factors (IGF-I, VEGF165, P1GF, or bFGF) or U87MG CM. […] CLT formation was analyzed after 24 h using an Olympus 1×50 microscope. Phase contrast images were captured with a digital video camera (Olympus U-CMT) and analyzed using Northern Eclipse v.5.0 software. Microphotographs were thresholded, converted to binary images and skeletonized. The total length of the CLT networks and the number of nodes (branching points) formed by HBEC in the center of the well (˜80% of the total surface) were quantified. […]

The next assay concerns PAI-1 in U87MG cells. Briefly: Western blot of PAI-1. The assay is classed as cell-based, human. Conditions: 500 μM dB-cAMP, 6 days. On the procedure:
Cellular proteins were extracted using CHAPS buffer. Proteins were separated on a 10% SDS-PAGE gel and transferred onto nitrocellulose membranes. Membranes were blocked with 5% instant skim dry milk in PBST for 1 hour, then washed twice for 5 min with PBST. Blots were probed with 1:500 dilution of the PAI-1 primary antibody (Biogenesis Ltd, England, UK) in 2% skim milk in PBST supplemented with 10 mM sodium azide overnight at 4° C. After washing in PBST, membranes were incubated with HRP-labeled anti-mouse IgG secondary antibody (NEN Life Science Products, USA; 1:5000) for 1 h at room temperature. Bands were visualized using Western Blot Chemiluminescence Reagent Plus kit (NEN™ Life Science Products) and the Fluor-S™ multiImager (BioRad Lab., Hercules, Calif., USA).

Assay [2] concerns U87MG cells. The experiment in a line: Anchorage-independent growth in semi-solid agar (U87MG). It is filed as cell-based, human. Particulars: for reduction of U87MG colony formation / tumor growth in soft agar: 500 ng/ml protein. On the procedure: D-MEM containing 10% FBS was warmed to 48° C. and diluted with Bacto-Agar to make a 0.6% (w/v) agar solution; 3 ml of agar solution was poured into 60 mm plates. […] Number and size of colonies formed were analyzed under the microscope (Olympus 1×50). Phase contrast images (6 fields/dish) were captured using a digital video camera (Olympus U-CMT) and analyzed with Northern Eclipse v.5.0 software. Each experiment was done in triplicate. Capillary-like tube (CLT) formation

The test system of assay [3] is U87MG cells. Briefly: Real-time PCR (Q-PCR) gene expression. The assay is classed as cell-based, human. Particulars: 500 μM dB-cAMP. On the procedure: Total RNA was isolated from cells with TRIzol Reagent (Gibco BRL). The RNA (1 μg) was primed with oligo (dT)12-18 primers (0.5 μg/μg RNA, Gibco BRL) and reverse transcribed with 1-3 U of avian myeloblastosis virus reverse transcriptase (AMV RT, Promega) in a final volume of 20 μl. Completed RT reactions were diluted to 40 μl with water. Control reactions without the enzyme were run in parallel to monitor for potential genomic contamination. Primers were designed (Primer Express Software v2.0) for genes of interest (Table III) using Primer Express 2.0 program. Real-Time PCR was carried out with SYBR Green PCR Core Reagents Kit (Applied Biosystems, CA, USA) using the GeneAmp® 5700 Sequence Detection System (Perkin Elmer Applied Biosystems). A cDNA pool serially diluted from 1:10 to 1:1000 was used to generate standard curves. Reactions were performed in 20 μl reaction mixture containing 1×SYBR PCR buffer (Perkin-Elmer), 200 μM of each dATP, dCTP, dGTP and 400 μM dUTP, 0.025 U/μl AmpliTaq Gold, 0.01 U/μl AmpEraseUNG (uracil-N-glycosylase), 3 mM MgCl2, 120 nM of each primer and 2 μl of cDNA. […] Fluorescence was detected at the end of every 60° C. phase. […]
The PCR cycle number at which fluorescence reaches a threshold value of 10 times the standard deviation of baseline emission was used for quantitative measurements. […]

Assay [4] relates to U87MG cells. Briefly: ELISA of secreted proteins in U87MG conditioned media. The assay is classed as cell-based, human. Particulars: 500 μM dB-cAMP, 6 days.
Assay [5] has as its system U87MG cells. The experiment in a line: U87MG proliferation, CyQUANT Cell Proliferation Assay. Particulars: for decrease in proliferation: 500 μM dB-cAMP. It is filed as cell-based, human. As for the experimental part: Proliferation rates of U87MG cells were determined using CyQUANT® Cell Proliferation Assay Kit (Molecular Probes, Inc., Eugene, Oreg.). […] Cells were fed every two days and harvested at days 2, 3, 5 and 6 by washing with HBSS, blotting microplates dry and storing at −80° C. until analysis. For cell density determination, plates were thawed at room temperature, 200 μl of CyQUANT GR dye/lysis buffer was added to each well and plates were incubated in the dark for 5 min. Sample fluorescence was measured (485 nm ex/530 nm em) in a cytofluorimeter plate reader (Bio-Tek FL600) and fluorescence values converted into cell numbers from cell reference standard curves.

Assay [6] concerns plasminogen activator activity in U87MG cells. Briefly: Plasminogen activator activity assay (S-2251). It is filed as cell-based, human. Conditions: 500 μM dB-cAMP, 3-day treatment. On the procedure: Plasminogen activator activity (PAA) was determined by a spectrophotometric method using the chromogenic substrate S-2251 (D-Val-Leu-Lys p-nitroanilide dihydrochloride). […] Cells were washed 3 times and incubated for 2 h at 37° C. in phenol red-free D-MEM containing 2 c.u./ml plasminogen (DiaPharma Group, Ohio, USA) and 2 mM chromogenic substrate S-2251 (DiaPharma Group, Ohio, USA). The cleavage of 4-nitroaniline from the substrate by plasminogen activator was measured photometrically at 405 nm. Protein levels were measured with BioRad protein assay and PPA was expressed as a function of protein content in cell extracts.

A further assay relates to Hela cells. Briefly: Anchorage-independent growth in semi-solid agar (Hela). It is filed as cell-based, human. Conditions: 500 ng/ml IGFBP-4, 4 weeks. On the procedure:
D-MEM containing 10% FBS was warmed to 48° C. and diluted with Bacto-Agar to make a 0.6% (w/v) agar solution; 3 ml of agar solution was poured into 60 mm plates. […] The solidified cell layer was covered with 500 μl D-MEM±treatment which was replaced every three days over a 20-25 day period. Number and size of colonies formed were analyzed under the microscope (Olympus 1×50). Phase contrast images (6 fields/dish) were captured using a digital video camera (Olympus U-CMT) and analyzed with Northern Eclipse v.5.0 software. Each experiment was done in triplicate. Capillary-like tube (CLT) formation

Setting [7] is: 500 ng/ml protein co-applied with U87MG CM.

Experimental findings from patent publication US20090048158A1, “Insulin-Like Growth Factor Binding Protein-4 Compounds and Methods for Inhibiting Angiogenesis and Tumor Growth in Mammalian Cells” (priority 2005, published 2009) are described below.

For the molecule `CCCC(=O)Nc1ncnc2c1ncn2[C@@H]1O[C@@H]2COP(=O)(O)O[C@H]2[C@H]1OC(=O)CCC` [dB-cAMP, dibutyryl cyclic AMP], in assay [1] (500 μM dB-cAMP added directly to U87MG CM), the “effect on U87MG CM-induced CLT formation” value was “did not inhibit CLT formation”. The “CLT formation by HBEC exposed to CM of dB-cAMP-treated U87MG” value in assay [1] (U87MG treated with 500 μM dB-cAMP, 6 days) is reported as “blocks the angiogenic response”. For the same molecule, in the assay on PAI-1 in U87MG cells, the PAI-1 protein expression result is listed as “up-regulation”. In addition, the “total number of colonies vs untreated” value with U87MG cells [2] (500 μM dB-cAMP or 500 ng/ml IGFBP-4) was “not significantly (p<0.05) different”. Also, the “reduction of size of colonies (total covered area per field)” value in the assay with U87MG cells [2] (500 μM dB-cAMP, 4 weeks) is listed as around 75%. Also, the “size of colonies (total covered area per field)” value with U87MG cells [2] (500 μM dB-cAMP, 4 weeks, untreated 1.1±0.3) was 0.3±0.1 mm^2. In addition, the “IGF-I and IGF-II mRNA change, Q-PCR” value in the assay with U87MG cells [3] is recorded as “no changes were detected”. Besides, the “IGFBP-3 mRNA levels treated vs untreated, Q-PCR” value with U87MG cells [3] (day 6) was “not significantly different”. Moreover, the “VEGF-A levels in CM, increase vs untreated” value in the assay on U87MG cells [4] was found to be 20%. The “levels of P1GF, IGF-1 and bFGF in CM” value in the assay on U87MG cells [4] was “below the detection limit”. In addition, in the assay on U87MG cells [4] (untreated ~60), the “VEGF-A level in CM of treated cells” value is around 80 ng/mL. Moreover, the figures for the decrease in proliferation in the assay on U87MG cells [5] (day 3), in the assay on U87MG cells [5] (day 5) and with U87MG cells [5] (day 6) were around 30%, around 45% and around 50%, respectively. In addition, the “reduction in plasminogen activator activity (PAA)” value in assay [6] was determined as 30%.
As to “vascular endothelial growth factor-165 [VEGF]”, the “HBEC preparations in which CLT formation was induced” value in assay [1] (7 HBEC isolations, VEGF 20 ng/ml alone or U87MG CM) is recorded as 3 out of 7.

B1: insulin-like growth factor binding protein (IGFBP)-4 (protein)
chain: MLPLCLVAALLLAAGPGPSLGDEAIHCPPCSEEKLARCRPPVGCEELVREPGCGCCATCALGLGMPCGVYTPRCGSGLRCYPPRGVEKPLHTLMHGQGVCMELAEIEAIQESLQPSDKDEGDHPNNSFSPCSAHDRRCLQKHFAKIRDRSTSGGKMKVNGAPREDARPVPQGSCQSELHRALERLAASQSRTHEDLYIIPIPNCDRNGNFHPKQCHPALDGQRGKCWCVDRKTGVKLPGGLEPKGELDCHQLADSFREVDPWSHPQFEKTGHHHHHHHHGGQ
modifications: Streptag-II/His8 tag; IGFBP-4 construct
notes: full length recombinant IGFBP-4 with Streptag-II/(His)8 tag, aa 1 to 258
Take B1: in assay [1] (setting [7]), the “effect on U87MG CM-induced CLT formation” value is “reversed U87MG CM-stimulated CLT (FIG. 4A-C) to control levels”. For the same molecule, in assay [1], the “effect on IGF-1-induced CLT formation” value is on record as “potently inhibited”, the “effect on P1GF-induced CLT formation” value is recorded as “antagonized”, the “effect on VEGF165-induced CLT formation” value is “antagonized” and the “effect on bFGF-induced CLT formation” value is “antagonized”. In addition, the “reduction of Hela colony formation / colony size” value with Hela cells is around 45%. In addition, in the assay on Hela cells (listed as IGFBP4), the “reduction of Hela colony formation / colony size” value was around 50%. Moreover, the “size of colonies (total area per field)” value in the assay on U87MG cells [2] (500 ng/ml IGFBP-4, 4 weeks, untreated 1.5±0.6) was determined as 0.4±0.3 mm^2. Moreover, the “reduction of U87MG colony formation / tumor growth in soft agar” value with U87MG cells [2] (4 weeks) was around 80%. The “effect on U87MG proliferation rates” value with U87MG cells [5] (500 ng/ml) is reported as “did not affect U87MG proliferation rates”.

B2: NBP-4: recombinant N-terminal IGFBP-4 protein fragment, aa 1 to 156 of the precursor, tagged (protein)
chain: MLPLCLVAALLLAAGPGPSLGDEAIHCPPCSEEKLARCRPPVGCEELVREPGCGCCATCALGLGMPCGVYTPRCGSGLRCYPPRGVEKPLHTLMHGQGVCMELAEIEAIQESLQPSDKDEGDHPNNSFSPCSAHDRRCLQKHFAKIRDRSTSGGKMDPWSHPQFEKTGHHHHHHHHGGQ
modifications: tagged; IGFBP4 N-terminal fragment construct
notes: recombinant N-terminal IGFBP-4 protein fragment, aa 1 to 156 of the precursor, tagged
Take B2: in assay [1], the “effect on IGF-1-induced CLT formation” value is on record as “abolish the angiogenic response” and the “effect on VEGF165-induced CLT formation” value is listed as “abolish the angiogenic response”. Also, in the assay on U87MG cells [2] (4 weeks), the “reduction of U87MG colony formation / tumor growth in soft agar” value was around 50%.

B3: CBP-4: recombinant C-terminal IGFBP-4 protein fragment, aa 155 to 258 of the precursor, tagged (protein)
chain: MLLLLLLLGLRLQLSLGIASKVNGAPREDARPVPQGSCQSELHRALERLAASQSRTHEDLYIIPIPNCDRNGNFHPKQCHPALDGQRGKCWCVDRKTGVKLPGGLEPKGELDCHQLADSFREVDPWSHPQFEKTGHHHHHHHHGGQ
modifications: tagged; IGFBP4 C-terminal construct
notes: recombinant C-terminal IGFBP-4 protein fragment, aa 155 to 258 of the precursor, tagged
As to B3, the “effect on U87MG CM-induced CLT formation” value in assay [1] (setting [7]) is given as “completely blocking”. In assay [1], the “effect on IGF-1-induced CLT formation” value is recorded as “completely blocking”, the “effect on P1GF-induced CLT formation” value was “completely blocking”, the “effect on VEGF165-induced CLT formation” value is given as “completely blocking” and the “effect on bFGF-induced CLT formation” value was “completely blocking”. Further, the “reduction of U87MG colony formation / tumor growth in soft agar” value with U87MG cells [2] (4 weeks) is recorded as around 55%.
